This note sets out measurements from patent US20160053277A1, “Compositions Having Dicamba Decarboxylase Activity and Methods of Use” (PIONEER HI-BRED INTERNATIONAL, INC., priority 2013, published 2016).

B1: 556 (protein)
chain: MAQGLVALEEHFAIPETLNDAAGFVPGCYWKELQHRLLDIQDTRLKEMDKHGIGTMILSLAAPAVQAIPDRRKAIELARRANDFLAEEVAKRPDRFLAFAALPMQDPDAATEELQRCVADLGFVGAMVNGFSQEGDGQTPLYYDLPQYRPFWKEVEKLDVPFYLHPRNPLPQDARIYDGHPWLLGPTWAFAQETAVHALRLMASGLFDEHPRLNIILGHMGEGLPYMMYRIDHRIAWVKAPPDYPAKRRFMDYFLENFHITTSGNFRTQTLIDAILEIGADRILFSTDWPFENIDHAADWFAATSIAEADRVKIGRTNARRLFKLDVR
modifications: Dicamba decarboxylase variant
B2: 543 (protein)
chain: MAQGLVALEEHFAIPETLQDAAGFVPGDYWKELQHRLLDIQDTRLKEMDKHGIGTMVLSLAAPAVQAIPDRRKAIEIARRANDFLAEEVAKRPDRFLAFAALPLQDVDAATEELQRCVNDLGFVGAMVNGFSQEGDGQTPLYYDLPQYRPFWGEVEKLDVPFYLHPRNPLPQDARIYDGHPWLLGPTWAFAQETAVHALRLMASGLFDEHPRLNIILGHLGEGLPYMMYRIDHRIAWVKAPPDYPAKRRFMDYFLENFWITTSGNFRTQTLIDAILEIGADRILFSTDWPFENIDHAADWFNATSIAEADRVKIGRTNARRLFKLDVR
modifications: Dicamba decarboxylase variant
B3: 552 (protein)
chain: MAQGLVALEEHFAIPETLQDAAGFVPGDYWKELQHRLLDIQDTRLKEMDKHGIGTMILSLAAPAVQAIPDRRKAIELARRANDFLAEEVAKRPDRFLAFAALPLQDVDAATEELQRCVADLGFVGAMVNGFSQEGDGQTPLYYDLPQYRPFWKEVEKLDVPFYLHPRNPLPQDSRIYDGHPWLLGPTWAFAQETAVHALRLMASGLFDEHPRLNIILGHMGEGLPYMMYRIDHRIAWVKAPPDYPAKRRFMDYFLENFHITTSGNFRTQTLIDAILEIGADRILFSTDWPFENIDHAADWFNATSIAEADRVKIGRTNARNLFKLDGR
modifications: Dicamba decarboxylase variant
B4: 551 (protein)
chain: MAQGKVALEEHFAIPETLQDAAGFVPGDYWKELQHRLLDMQDERLKEMDKHEIGTMVLSLAAPAVQAIPDRRKAIELARRANDFLAEEVAKRPDRFLAFAALPLQDVDAATEELQRCVNDLGFVGAMVNGFSQEGDGQTPLYYDLPQYRPFWGEVEKLDVPFYLHPRNPLPQDSRIYDGHPWLLGPTWAFAQETAVHALRLMASGLFDEHPRLNIILGHMGEGLPYMMYRIDHRIAWVKAPPDYPAKRRFMDYFLENFHITTSGNFRTQTLIDAILEIGADRILFSTDWPFENIDHAADWFNATSIAEADRVKIGRTNARRLFKLDGR
modifications: Dicamba decarboxylase variant
B5: 550 (protein)
chain: MAQGKVALEEHFAIPETLQDAAGFVPGCYWKELQHRLLDIQDTRLKEMDKHEIGTMVLSLAAPAVQAIPDRRKAIELARRANDFLAEEVAKRPDRFLAFAALPLQDVDAATEELQRCVNDLGFVGAMVNGFSQEGDGQTPLYYDLPQYRPFWGEVEKLDVPFYLHPRNPLPQDSRIYDGHPWLLGPTWAFAQETAVHALRLMASGLFDEHPRLNIILGHMGEGLPYMMYRIDHRIAWVKAPPRYPAKRRFMDYFLENFHITTSGNFRTQTLIDAILEIGADRILFSTDWPFENIDHAADWFAATSIAEADRVKIGRTNARRLFKLDVR
modifications: Dicamba decarboxylase variant
B6: 549 (protein)
chain: MAQGLVALEEHFAIPETLQDAAGFVPGCYWKELQHRLLDIQDTRLKEMDRHEIGTMVLSLAAPAVQAIPDRRKAIELAKRANDFLAEEVAKRPDRFLAFAALPLQDVDAATEELQRCVNDLGFVGAMVNGFSQEGDGQTPLYYDLPQYRPFWGEVEKLDVPFYLHPRNPLPQDARIYDGHPWLLGPTWAFAQETAVHALRLMASGLFDEHPRLNIILGHMGEGLPYMMYRIDHRIAWVKAPPDYPAKRRFMDYFLENFHITTSGNFRTQTLIDAILEIGADRILFSTDWPFENIDHAADWFAATSIAEADRVKIGRTNARRLFKLDGS
modifications: Dicamba decarboxylase variant
B7: 547 (protein)
chain: MAQGLVALEEHFAIPETLQDAAGFVPGDYWKELQHRLLDIQDTRLKEMDKHEIGTMILSLAAPAVQAIPDRRKAIELAKRANDFLAEEVAKRPDRFLAFAALPMQDVDAATEELQRCVADLGFVGAMVNGFSQEGDGQTPLYYDLPQYRPFWKEVEKLDVPFYLHPRNPLPQDARIYDGHPWLLGPTWAFAQETAVHALRLMASGLFDEHPRLNIILGHMGEGLPYMMYRIDHRIAWVKAPPRYPAKRRFMDYFLENFHITTSGNFRTQTLIDAILEIGADRILFSTDWPFENIDHAADWFNATSIAEADRVKIGRTNARRLFKLDVR
modifications: Dicamba decarboxylase variant
B8: 553 (protein)
chain: MAQGLVALEEHFAIPETLQDAAGFVPGCYWKELQHRLLDIQDTRLKEMDKHEIGTMVLSLAAPAVQAIPDRRKAIEIARRANDFLAEEVAKRPDRFLAFAALPLQDVDAATEELQRCVADLGFVGAMVNGFSQEGDGQTPLYYDLPQYRPFWGEVEKLDVPFYLHPRNPLPQDSRIYDGHPWLLGPTWAFAQETAVHALRLMASGLFDEHPRLNIILGHMGEGLPYMMYRIDHRIAWVKAPPDYPAKRRFMDYFLENFWITTSGNFRTQTLIDAILEIGADRILFSTDWPFENIDHAADWFNATSIAEADRVKIGRTNARRLFKLDVR
modifications: Dicamba decarboxylase variant
B9: 546 (protein)
chain: MAQGKVALEEHFAIPETLQDAAGFVPGDYWKELQHRLLDMQDTRLKEMDKHGIGTMVLSLAAPAVQAIVDRRKAIELARRANDFLAEEVAKRPDRFLAFAALPLQDVDAATEELQRCVNDLGFVGAMVNGFSQEGDGQTPLYYDLPQYRPFWGEVEKLDVPFYLHPRNPLPQDSRIYDGHPWLLGPTWAFAQETAVHALRLMASGLFDEHPRLNIILGHMGEGLPYMMYRIDHRIAWVKAPPDYPAKRRFMDYFLENFHITTSGNFRTQTLIDAILEIGADRILFSTDWPFENIDHAADWFAATSIAEADRVKIGRTNARRLFKLDGR
modifications: Dicamba decarboxylase variant
B10: 554 (protein)
chain: MAQGLVALEEHFAIPETLQDAAGFVPGDYWKELQHRLMDIQDTRLKEMDKHGIGTMVLSLAAPAVQGIVDRRKAIEIAKRANDFLAEEVAKRPDRFLAFAALPLQDVDAATEELQRCVADLGFVGAMVNGFSQEGDGQTPLYYDLPQYRPFWGEVEKLDVPFYLHPRNPLPQDARIYDGHPWLLGPTWAFAQETAVHALRLMASGLFDEHPRLNIILGHLGEGLPYMMYRIDHRIAWVKAPPDYPAKRRFMDYFLENFWITTSGNFRTQTLIDAILEIGADRILFSTDWPFENIDHAADWFAATSIAEADRVKIGRTNARRLFKLDVS
modifications: Dicamba decarboxylase variant
B11: 544 (protein)
chain: MAQGKVALEEHFAIPETLQDAAGFVPGDYWKELQHRLLDIQDTRLKEMDKHEIGTMVLSLAAPAVQAIPDRRKAIELARRANDFLAEEVAKRPDRFLAFAALPLQDVDAATSELQRCVNDLGFVGAMVNGFSQEGDGQTPLYYDLPQYRPFWGEVEKLDVPFYLHPRNPLPQDSRIYDGHPWLLGPTWAFAQETAVHALRLMASGLFDEHPRLNIILGHLGEGLPYMMYRIDHRIAWVKAPPDYPAKRRFMDYFLENFWITTSGNFRTQTLIDAILEIGADRILFSTDWPFENIDHAADWFNATSIAEADRVKIGRTNARNLFKLDVS
modifications: Dicamba decarboxylase variant
B12: 545 (protein)
chain: MAQGLVALEEHFAIPETLQDAAGFVPGDYWKELQHRLLDMQDTRLKEMDRHGIGTMVLSLAAPAVQAIPDRRKAIELARRANDFLAEEVAKRPDRFLAFAALPLQDVDAATEELQRCVNDLGFVGAMVNGFSQEGDGQTPLYYDLPQYRPFWGEVEKLDVPFYLHPRNPLPQDARIYDGHPWLLGPTWAFAQETAVHALRLMASGLFDEHPRLNIILGHMGEGLPYMMYRIDHRIAWVKAPPDYPAKRRFMDYFLENFHITTSGNFRTQTLIDAILEIGADRILFSTDWPFENIDHAADWFNATSIAEADRVKIGRTNARRLFKLDGR
modifications: Dicamba decarboxylase variant
B13: 555 (protein)
chain: MAQGKVALEEHFAIPETLQDAAGFVPGCYWKELQHRLMDIQDTRLKEMDKHEIGTMVLSLAAPAVQAIPDRRKAIEIARRANDFLAEEVAKRPDRFLAFAALPLQDVDAATEELQRCVNDLGFVGAMVNGFSQEGDGQTPLYYDLPQYRPFWGEVEKLDVPFYLHPRNPLPQDARIYDGHPWLLGPTWAFAQETAVHALRLMASGLFDEHPRLNIILGHMGEGLPYMMYRIDHRIAWVKAPPDYPAKRRFMDYFLENFHITTSGNFRTQTLIDAILEIGADRILFSTDWPFENIGHAADWFNATSIAEADRVKIGRTNARRLFKLDVS
modifications: Dicamba decarboxylase variant
B14: 548 (protein)
chain: MAQGKVALEEHFAIPETLQDAAGFVPGDYWKELQHRLMDIQDTRLKEMDRHGIGTMVLSLAAPAVQAIPDRRKAIEIARRANDFLAEEVAKRPDRFLAFAALPMQDPEAATSELQRCVADLGFVGAMVNGFSQEGDGQTPLYYDLPQYRPFWGEVEKLDVPFYLHPRNPLPQDARIYDGHPWLLGPTWAFAQETAVHALRLMASGLFDEHPRLNIILGHMGEGLPYMMYRIDHRIAWVKAPPDYPAKRRFMDYFLENFHITTSGNFRTQTLIDAILEIGADRILFSTDWPFENIDHAADWFNATSIAEADRVKIGRTNARNLFKLDVR
modifications: Dicamba decarboxylase variant

This experiment in a line: Shuffled variant libraries: 14CO2 capturing assay in 384-well format. To be noted: decarboxylation activity (carbon dioxide released) compared with unmutated backbone protein SEQ ID NO 509 (DDEC0810).
For B1, the “Fold Activity” value was 1.3. Next, B2: 0.9; B3: 1.7.

For the molecule B4, the “Fold Activity” value is 1.0.

B5: the “Fold Activity” value is recorded as 1.1. Next, B6: 1.1; B7: 1.6; B8: 0.9. Regarding B9, the “Fold Activity” value is 1.3. On to B10, for which the “Fold Activity” value turned out to be 0.9.

Turning to B11, the “Fold Activity” value is 1.2. Next, B12: 1.1.

Regarding B13, the “Fold Activity” value was 0.8. To B14 belongs 0.8.
